Literature values as cited in PMC10172704 (Poultry Science, 2023).
Like-named read-outs stand apart in the source and are kept apart here.

Tests used:
Escherichia coli = conditions: ref Wang et al., 2020
Staphylococcus aureus = conditions: ref Wang et al., 2020

B1: Milk lactoferrin: milk lactoferrin; literature MICs, also after proteolytic digestion by pepsin (protein, UniProt P02788 20-710, looked up)
Lactotransferrin: GRRRSVQWCAVSQPEATKCFQWQRNMRKVRGPPVSCIKRDSPIQCIQAIAENRADAVTLDGGFIYEAGLAPYKLRPVAAEVYGTERQPRTHYYAVAVVKKGGSFQLNELQGLKSCHTGLRRTAGWNVPIGTLRPFLNWTGPPEPIEAAVARFFSASCVPGADKGQFPNLCRLCAGTGENKCAFSSQEPYFSYSGAFKCLRDGAGDVAFIRESTVFEDLSDEAERDEYELLCPDNTRKPVDKFKDCHLARVPSHAVVARSVNGKEDAIWNLLRQAQEKFGKDKSPKFQLFGSPSGQKDLLFKDSAIGFSRVPPRIDSGLYLGSGYFTAIQNLRKSEEEVAARRARVVWCAVGEQELRKCNQWSGLSEGSVTCSSASTTEDCIALVLKGEADAMSLDGGYVYTAGKCGLVPVLAENYKSQQSSDPDPNCVDRPVEGYLAVAVVRRSDTSLTWNSVKGKKSCHTAVDRTAGWNIPMGLLFNQTGSCKFDEYFSQSCAPGSDPRSNLCALCIGDEQGENKCVPNSNERYYGYTGAFRCLAENAGDVAFVKDVTVLQNTDGNNNEAWAKDLKLADFALLCLDGKRKPVTEARSCHLAMAPNHAVVSRMDKVERLKQVLLHQQAKFGRNGSDCPDKFCLFQSETKNLLFNDNTECLARLHGKTTYEKYLGPQYVAGITNLKKCSTSPLLEACEFLRK
- MIC (Escherichia coli; after proteolytic digestion by pepsin): 65 mg/mL
- MIC (Escherichia coli): 130 mg/mL
- MIC (Staphylococcus aureus): 260 mg/mL
